# Measurements reported in PMC7470959, “Structures of mammalian GLD-2 proteins reveal molecular basis of their functional diversity in mRNA and microRNA processing”.
# T1: rnGLD-2 NTase region WT (Rattus norvegicus, UniProt Q5U315 131-484)
# T1 sequence: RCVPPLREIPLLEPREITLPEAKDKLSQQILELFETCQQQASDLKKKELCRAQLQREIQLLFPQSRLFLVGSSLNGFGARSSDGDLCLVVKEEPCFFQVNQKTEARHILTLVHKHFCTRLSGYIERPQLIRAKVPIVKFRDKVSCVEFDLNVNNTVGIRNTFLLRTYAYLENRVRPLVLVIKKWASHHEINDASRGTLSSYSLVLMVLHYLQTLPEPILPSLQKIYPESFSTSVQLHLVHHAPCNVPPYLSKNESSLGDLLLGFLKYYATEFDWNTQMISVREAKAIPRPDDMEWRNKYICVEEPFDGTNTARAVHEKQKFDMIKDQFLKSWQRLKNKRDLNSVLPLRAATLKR
# T2: rnGLD-2 R325A (Rattus norvegicus, UniProt Q5U315 131-484, R325A)
# T2 sequence: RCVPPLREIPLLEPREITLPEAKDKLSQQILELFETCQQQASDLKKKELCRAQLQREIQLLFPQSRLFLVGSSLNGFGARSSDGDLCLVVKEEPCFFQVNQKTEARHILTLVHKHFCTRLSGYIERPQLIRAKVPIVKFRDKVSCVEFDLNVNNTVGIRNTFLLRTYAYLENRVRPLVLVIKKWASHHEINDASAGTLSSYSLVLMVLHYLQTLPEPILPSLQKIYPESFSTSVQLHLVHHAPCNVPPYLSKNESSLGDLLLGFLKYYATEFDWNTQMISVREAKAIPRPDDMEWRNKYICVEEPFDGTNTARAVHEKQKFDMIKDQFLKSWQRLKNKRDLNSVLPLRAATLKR
# T3: rnGLD-2 R443A (Rattus norvegicus, UniProt Q5U315 131-484, R443A)
# T3 sequence: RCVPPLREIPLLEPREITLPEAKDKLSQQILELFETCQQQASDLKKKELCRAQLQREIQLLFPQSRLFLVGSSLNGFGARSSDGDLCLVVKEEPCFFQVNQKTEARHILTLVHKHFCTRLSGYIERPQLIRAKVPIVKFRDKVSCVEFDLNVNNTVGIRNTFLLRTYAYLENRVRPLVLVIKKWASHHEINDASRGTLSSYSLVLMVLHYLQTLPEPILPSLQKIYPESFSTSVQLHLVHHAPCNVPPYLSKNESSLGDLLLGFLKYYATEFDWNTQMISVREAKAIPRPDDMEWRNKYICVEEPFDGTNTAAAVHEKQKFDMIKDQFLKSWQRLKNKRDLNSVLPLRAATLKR
# T4: rnGLD-2 R236A (Rattus norvegicus, UniProt Q5U315 131-484, R236A)
# T4 sequence: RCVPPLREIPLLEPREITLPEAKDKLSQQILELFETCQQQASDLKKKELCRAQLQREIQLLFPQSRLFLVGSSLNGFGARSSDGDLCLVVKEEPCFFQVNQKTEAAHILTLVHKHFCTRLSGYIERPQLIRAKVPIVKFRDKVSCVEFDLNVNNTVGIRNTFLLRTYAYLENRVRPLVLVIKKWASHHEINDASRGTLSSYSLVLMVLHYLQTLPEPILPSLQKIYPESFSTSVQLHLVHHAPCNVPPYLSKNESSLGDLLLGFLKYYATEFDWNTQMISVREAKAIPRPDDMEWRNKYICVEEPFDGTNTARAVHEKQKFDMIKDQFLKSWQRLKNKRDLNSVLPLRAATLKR
# Assays:
# Settings in all cases: protein: recombinant; tags: N-terminal His6 removed by PreScission protease; label: 5' biotin; single strand
# rnGLD-2 NTase region WT = molecular target: T1, rnGLD-2 NTase region WT; assay: EMSA; 4 uM protein, 50 nM RNA; described as weak interaction; no Mg2+ listed in binding buffer; EMSA: 20 mM Tris-HCl pH 8.0, 100 mM NaCl, 37 C 20 min; 4 uM protein, 50 nM 5' biotinylated RNA; 6% native gel, TAE pH 7.2, 4 C
# rnGLD-2 R325A = molecular target: T2, rnGLD-2 R325A; assay: EMSA; 4 uM protein, 50 nM RNA; EMSA: 20 mM Tris-HCl pH 8.0, 100 mM NaCl, 37 C 20 min; 4 uM protein, 50 nM 5' biotinylated RNA; 6% native gel, TAE pH 7.2, 4 C
# rnGLD-2 R443A = molecular target: T3, rnGLD-2 R443A; assay: as above
# rnGLD-2 R236A = molecular target: T4, rnGLD-2 R236A; assay: EMSA; 4 uM protein, 50 nM RNA; efficient/tight binding stated; EMSA: 20 mM Tris-HCl pH 8.0, 100 mM NaCl, 37 C 20 min; 4 uM protein, 50 nM 5' biotinylated RNA; 6% native gel, TAE pH 7.2, 4 C
binder,measurement,setting,value
AAAAAAAAAAAAAAA (ssRNA) [A15],binding result,rnGLD-2 NTase region WT,binds
same,binding result,rnGLD-2 R325A,no binding
same,binding result,rnGLD-2 R443A,no binding
same,binding result,rnGLD-2 R236A,binds
